Results on 3 molecules are retold here after article PMC4532856 (Nature Communications, 2015).

In assay [1] the target is T1, full-length glucagon receptor purified from Sf9 membranes (Homo sapiens, UniProt P47871).
T1 construct: glucagon receptor (GCGR), full-length construct; the small molecule NNC0640 was present throughout; also called full-length GCGR; GCGR; source: Sf9 membranes, solubilised in DDM/CHS, purified (talon resin), exchanged into lauryl maltose neopentyl glycol
Briefly: negative-stain EM (random conical tilt 3D maps); purified GCGR in lauryl maltose neopentyl glycol mixed with mAb23 Fab, complex isolated by size exclusion chromatography, stained with 2% uranyl formate. Particulars: both partners purified.

The test system of assay [2] is GCGR. Particulars: cited from earlier work.
Assay [3] concerns the target T2, full-length glucagon receptor (GCGR), purified from Sf9 membranes for EM (Homo sapiens, UniProt P47871).
T2 construct: glucagon receptor (GCGR), human, called the full-length construct; also called full-length GCGR; full-length construct
The assay is described as follows: negative-stain electron microscopy map (random conical tilt); mAb23 Fab mixed with detergent-purified GCGR (lauryl maltose neopentyl glycol, NNC0640), complex isolated by size exclusion chromatography; 2% uranyl formate stain; about 0.01 uM protein. Particulars: both partners purified.

T2 sequence (P47871 26-477): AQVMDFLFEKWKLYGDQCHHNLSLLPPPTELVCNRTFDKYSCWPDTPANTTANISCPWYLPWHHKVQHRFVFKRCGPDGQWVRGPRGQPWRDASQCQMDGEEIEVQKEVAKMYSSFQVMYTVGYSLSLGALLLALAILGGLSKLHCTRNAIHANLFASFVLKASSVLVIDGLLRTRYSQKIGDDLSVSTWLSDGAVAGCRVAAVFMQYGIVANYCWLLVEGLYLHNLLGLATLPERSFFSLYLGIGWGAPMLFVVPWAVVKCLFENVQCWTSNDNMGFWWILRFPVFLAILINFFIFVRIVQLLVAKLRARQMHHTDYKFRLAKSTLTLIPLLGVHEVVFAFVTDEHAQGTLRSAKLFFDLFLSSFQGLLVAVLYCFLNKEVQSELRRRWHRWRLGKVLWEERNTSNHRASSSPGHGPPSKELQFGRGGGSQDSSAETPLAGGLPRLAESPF
T1 sequence (P47871 26-477): as above

B1: antigen-binding fragment (Fab) of the monoclonal antibody mAb23 (Fab, V domains shown)
VH: EVQLVESGGGLVQPGGSLRLSCAASGFNIYYNYIHWVRQAPGKGLEWVAEFSPYSGSTYYADSVKGRFTISADTSKNTAYLQMNSLRAEDTAVYYCARSAAIVDWYDYFKGFDYWGQGTLVTVSS
VL: DIQMTQSPSSLSASVGDRVTITCRASQSVSSAVAWYQQKPGKAPKLLIYSASSLYSGVPSRFSGSRSGTDFTLTISSLQPEDFATYYCQQYGSYLYTFGQGTKVEIK
notes: The alignment numbers light chain 1-215 and heavy chain 216-443 in one run; also called mAb23 Fab; source: kindly provided by Genentech
Take B1: the binding result in assay [1] is “binds”.

B2: mAb23: monoclonal antibody that interacts with the ECD of GCGR; Fab kindly provided by Genentech (antibody, V domains shown)
VH: EVQLVESGGGLVQPGGSLRLSCAASGFNIYYNYIHWVRQAPGKGLEWVAEFSPYSGSTYYADSVKGRFTISADTSKNTAYLQMNSLRAEDTAVYYCARSAAIVDWYDYFKGFDYWGQGTLVTVSS
VL: DIQMTQSPSSLSASVGDRVTITCRASQSVSSAVAWYQQKPGKAPKLLIYSASSLYSGVPSRFSGSRSGTDFTLTISSLQPEDFATYYCQQYGSYLYTFGQGTKVEIK
For B2, the “effect on glucagon binding to the receptor” value in assay [2] is on record as “preventing glucagon from binding to the receptor”.

B3: antigen-binding fragment (Fab) of the monoclonal antibody mAb23 (Fab, V domains shown)
VH: EVQLVESGGGLVQPGGSLRLSCAASGFNIYYNYIHWVRQAPGKGLEWVAEFSPYSGSTYYADSVKGRFTISADTSKNTAYLQMNSLRAEDTAVYYCARSAAIVDWYDYFKGFDYWGQGTLVTVSS
VL: DIQMTQSPSSLSASVGDRVTITCRASQSVSSAVAWYQQKPGKAPKLLIYSASSLYSGVPSRFSGSRSGTDFTLTISSLQPEDFATYYCQQYGSYLYTFGQGTKVEIK
notes: Related to mAb1, whose Fab is in PDB 4ERS (cited); also called mAb23 Fab; source: kindly provided by Genentech
In the case of B3, the binding result in assay [3] is recorded as “binds”.
